Measurements taken from PMC5389579.

Biological target: SSRP1 (Flag) (human, UniProt Q08945 1-709)
Test: EMSA

Sequence of SSRP1 (Flag) (Q08945 whole entry): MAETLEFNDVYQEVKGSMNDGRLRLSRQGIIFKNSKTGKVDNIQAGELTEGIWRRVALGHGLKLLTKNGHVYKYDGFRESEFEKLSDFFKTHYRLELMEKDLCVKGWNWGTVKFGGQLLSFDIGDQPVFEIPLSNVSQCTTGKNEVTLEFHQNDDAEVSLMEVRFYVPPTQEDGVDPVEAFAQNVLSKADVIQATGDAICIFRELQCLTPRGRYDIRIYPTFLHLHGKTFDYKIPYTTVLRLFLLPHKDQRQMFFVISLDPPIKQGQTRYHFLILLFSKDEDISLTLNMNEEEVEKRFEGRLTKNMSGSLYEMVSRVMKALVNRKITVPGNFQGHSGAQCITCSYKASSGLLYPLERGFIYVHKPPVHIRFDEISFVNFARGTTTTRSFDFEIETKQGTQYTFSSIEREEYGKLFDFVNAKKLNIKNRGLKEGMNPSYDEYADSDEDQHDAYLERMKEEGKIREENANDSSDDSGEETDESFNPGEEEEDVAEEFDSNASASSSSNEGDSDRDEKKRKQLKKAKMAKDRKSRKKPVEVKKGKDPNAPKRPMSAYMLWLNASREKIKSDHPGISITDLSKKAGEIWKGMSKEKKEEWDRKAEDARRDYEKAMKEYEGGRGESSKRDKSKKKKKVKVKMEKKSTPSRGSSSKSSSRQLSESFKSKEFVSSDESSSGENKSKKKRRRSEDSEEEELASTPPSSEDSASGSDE

B1: AC probe (dsDNA)
DNA 1: ACACACACACACACACACACACACACACACACACAC
DNA 2: GTGTGTGTGTGTGTGTGTGTGTGTGTGTGTGTGTGT
Q: Does B1 bind?
A: binds
